Data on four substances can be found in publication PMC6224593.

For assay [1], the target named is ComR of Streptococcus mutans UA159 (Streptococcus mutans UA159). The experiment in a line: ITC; XIP 600 μM injected into ComR 20 μM; 20 mM Tris pH 7.5, 100 mM NaCl, 1 mM β-ME with matched DMSO; VP-ITC, 25 °C; one-site model.
Assay [2] has the same target. The experiment in a line: ITC; paratox 240 μM injected into ComR 20 μM; 20 mM Tris pH 7.5, 100 mM NaCl, 1 mM β-ME; VP-ITC, 25 °C; one-site model.
For assay [3] the target is unchanged.

As to “XIP (sigX-inducing peptide) of Streptococcus mutans UA159”, in assay [1], the Kd turned out to be 3.6 µM and the stoichiometry N stood at 1.01. As to “paratox (Prx) of Streptococcus pyogenes MGAS315 (from UniProt Q4VUT1 1-60) (natural protein)”, in assay [2], the Kd turned out to be 0.133 µM and the stoichiometry N was 0.95. Besides, in assay [3], the PsigX-luxAB reporter in S. mutans with MGAS315 prx in trans, 200 nM XIP, against the empty vector was > 2 fold. On to “paratox of Streptococcus pyogenes MGAS5005, prophage MGAS5005.3 (prx3) (from UniProt Q4VUT1 1-60) (natural protein)”, for which the PsigX-luxAB reporter in S. mutans with MGAS5005 prx3 in trans, 200 nM XIP, against the empty vector in assay [3] was > 2 fold. On to “paratox of Streptococcus pyogenes MGAS8232 (from UniProt Q4VUT1 1-60) (natural protein)”, for which the PsigX-luxAB reporter in S. mutans with MGAS8232 prx in trans, 200 nM XIP, against the empty vector in assay [3] is > 2 fold.
